Consider 2 substances from patent US20160122387A1, “Angiotensin Peptide and Pharmaceutical Compositions for Disease Treatment” (UNIVERSIDADE FEDERAL DE MINAS GERAIS - UFMG, priority 2012, published 2016).

Square brackets hold non-standard residues; d marks the D form. Ends that are not written are not given here.

The target of assay [1] is T1, Mas receptor (Rattus norvegicus, UniProt P12526).
T1 construct: from tissue; host or cells: SHR rat thoracic aorta rings and mesenteric artery rings
T1 sequence (P12526 1-324): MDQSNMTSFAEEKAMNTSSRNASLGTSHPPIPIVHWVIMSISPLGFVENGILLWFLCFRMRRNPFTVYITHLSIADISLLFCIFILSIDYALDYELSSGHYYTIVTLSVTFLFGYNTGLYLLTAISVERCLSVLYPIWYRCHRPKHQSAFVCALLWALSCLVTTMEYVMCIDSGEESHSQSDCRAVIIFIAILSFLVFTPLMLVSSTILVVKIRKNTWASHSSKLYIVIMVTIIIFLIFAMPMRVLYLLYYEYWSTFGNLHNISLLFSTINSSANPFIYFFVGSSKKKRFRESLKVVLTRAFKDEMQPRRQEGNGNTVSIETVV
The experiment in a line: Vasorelaxation in SHR aortic rings in the presence of Mas receptor antagonists A-779 and D-Pro. The method, then: Three- to four-mm rings of the descending thoracic aorta in spontaneously hypertensive rats (SHR), free from adipose and connective tissue, were maintained in a gasified solution (95% 02 and 5% CO2) of Krebs-Henseleit, at 37° C. under a tension of 1.0 g for 1 hour for stabilization. The presence of functional endothelium was assessed by the ability of acetylcholine [ACh] (10 μmol/L) to induce more than 70% relaxation of vessels pre-contracted with phenylephrine (0.1 μmol/L). The mechanical activity, recorded isometrically by a force transducer, was fed into a recorder-amplifier and a computer equipped with an analog-digital converter board, using CVMS data acquisition/recording software.
The SHR vessels were pre-contracted to the same voltage level (approximately 1.0 g tension) at the submaximal concentration of phenylephrine (0.1 μmol/L). Mas receptor antagonists, A-779 and D-Pro, were added to […] immediately before adding the arg0-Ang-(1-7) in increasing cumulative concentrations. Results are presented as mean±SEM. One-way analysis of variance (ANOVA) with the Newman-Keuls post-test for multiple comparisons was used to compare the concentration response curves obtained in the aortic rings. The result was expressed as the percentage of decrease in peak concentration induced by phenylephrine. All statistical analyses were considered significant when p<0.05.

Assay [2] addresses T1, Mas receptor. The experiment in a line: Vasorelaxation in SHR mesenteric rings in the presence of Mas receptor antagonist A-779. The method, then: Rings (2.0 mm) of mesenteric artery (2nd and/or 3rd branches) in spontaneously hypertensive rats (SHR), free from adipose and connective tissue, were maintained in a gasified solution (95% 02 and 5% CO2) of Krebs-Hanseleit, at 37° C. After a 15 minute stabilization period, the artery was stretched, gradually, to a resting tension considered optimal with respect to its inner diameter. For this, in each arterial segment, the voltage/diameter was calculated by internal circumference which corresponds to a transmural pressure of 100 mmHg for a relaxed vessel in situ (IC100) using software specific for standardization resistance arteries. For the experiments, the arteries were maintained with an internal circumference, IC1, calculated using the formula IC1=0.90×IC100, in which the development of strength is maximum, as previously described by Mulvany and Halpern (1977). The effective luminal diameter was determined according to the I1=IC1/π equation. […]
The presence of functional endothelium was assessed by the ability of acetylcholine [ACh] […] The mechanical activity was recorded isometrically using a myograph, which was connected to a system for data acquisition and to a computer.
The SHR vessels were pre-contracted with sub-maximal concentrations of phenylephrine (0.1 μmol/L). […] The result was expressed as a percentage of decrease in peak concentration induced by phenylephrine. […]

For assay [3], the target named is rat receptor Mas (rat) (UniProt P12526). Kind of assay: cell-based or functional assay.

Turning to “Asp-Arg-Val-Tyr-Ile-His-D-Ala (DRVYIH[dA]) [A-779]”, the “antagonist effect on the vasorelaxation produced by arg0-Ang-(1-7)” value in assay [1] and in assay [2] was “blocked the vasorelaxant effect of the peptide” in each case.

As for arg0-angiotensin-(1-7) (peptide), in assay [3], the Emax of vasorelaxation by arg0-Ang-(1-7) in SHR mesenteric artery rings in the presence of A-779 was found to be 14.1%, the Emax of vasorelaxation by arg0-Ang-(1-7) in SHR rat aortic rings in the presence of A-779 is 14% and the Emax of vasorelaxation by arg0-Ang-(1-7) in SHR rat aortic rings in the presence of D-Pro is 11%.
